# Measurements published in patent US9035023B2, “Bombesin analog peptide antagonist conjugates” (Piramal Imaging, SA, priority 2008, dated 2015).
# What was measured:
# GRP receptor [1] = molecular target: T1, GRP receptor (Homo sapiens, UniProt P30550); assay: GRP receptor binding affinity by in vitro receptor autoradiography; parameters: host or cells: PC3 cells; conditions: read-out: BINDING IC50 (nM) mean ± SEM
# Experimental: The GRP receptor binding affinity of the various compounds was determined by in vitro receptor autoradiography on cryostat sections of either well characterized prostate carcinomas, or on sections from HEK-GRPR or PC3 cell pellets as described previously (Markwalder et al., Can. Res., 1999; 59, 1152-1159; Reubi et al., Eur. J. Nucl. Med., 2000; 27: 273-282; Reubi et al., Clin. Cancer Res. 2002; 8 1139-1146).
# GRP receptor [2] = molecular target: T1, GRP receptor; assay: Immunofluorescence microscopy based internalization assay with HEK-GRPR cells; type: cell-based; parameters: expressed in transfected cells; host or cells: HEK293; conditions: for antagonism of bombesin-induced GRP receptor internalization: 10 nmol/L bombesin + 1 μmol/L analogue; for antagonism of bombesin-induced GRP receptor internalization / GRP receptor internalization, given alone: 30 min; for GRP receptor internalization, given alone: 1 μmol/L
# Experimental: Briefly, HEK-GRPR cells were grown on poly-D-lysine (20 μg/ml) (Sigma-Aldrich, St. Louis, Mo.) coated 35 mm four-well plates (Cellstar, Greiner Bio-One GmbH, Frickenhausen, Germany). […] The cells were imaged using a Leica DM RB immunofluorescence microscope and an Olympus DP10 camera.
# Following incubation with the peptides, the cells were processed for immunocytochemistry as described in above.
# GRP receptor [3] = molecular target: T1, GRP receptor; assay: Calcium release assay in PC3 cells (Fluo-4NW); type: cell-based; parameters: host or cells: PC3 cells
# Experimental: In brief, PC3 cells were seeded (10,000 cells per well) in 96 well plates and cultured for 2 day at 37° C. and 5% CO2 in culture medium. At the day of the experiment, the cells were washed with assay buffer (1×HBSS, 20 mM HEPES) containing 2.5 mM probenecid, and then loaded with 100 μL/well Fluo-4NW dye in assay buffer containing 2.5 mM probenecid for 30 min at 37° C. and 5% CO2 and then for further 30 min at room temperature. […] Intracellular calcium mobilization was recorded in a kinetic for 60 sec at room temperature monitoring fluorescence emission at 520 nm (with λex=485 nm) in the presence of the analogues at the concentrations indicated. […] Baseline (F-baseline) measurements were taken for dye-loaded, untreated cells. […] All experiments were repeated at least three times in triplicate.
# GRP receptor [4] = molecular target: T1, GRP receptor; conditions: cited from earlier work
# PC-3 tumor [5] = tested on: PC-3 tumor
# PC-3 tumor [6] = assay: Biodistribution in PC-3 tumor bearing nude mice
# Experimental: Eleven days after inoculation the mice were injected into the tail vein with 10 pmol of radiolabeled peptides (about 0.18 MBq), diluted in NaCl (0.1% bovine serum albumin, pH 7.4, total injected volume=100 μL).
# [7] = 100 μg bombesin or non-radioactive Compound 2
# T1 sequence (P30550 whole entry): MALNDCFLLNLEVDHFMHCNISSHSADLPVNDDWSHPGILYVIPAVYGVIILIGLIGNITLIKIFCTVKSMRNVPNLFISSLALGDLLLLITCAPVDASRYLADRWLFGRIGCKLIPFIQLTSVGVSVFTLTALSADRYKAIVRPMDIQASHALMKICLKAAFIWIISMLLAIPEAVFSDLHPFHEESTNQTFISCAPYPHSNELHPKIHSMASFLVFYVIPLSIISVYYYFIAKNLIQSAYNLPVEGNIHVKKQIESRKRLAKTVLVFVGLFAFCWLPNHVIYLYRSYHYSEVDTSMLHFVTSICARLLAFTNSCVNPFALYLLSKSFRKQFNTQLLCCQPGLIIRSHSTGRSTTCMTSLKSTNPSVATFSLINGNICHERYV
compound,measurement,setting,value
"CC(C)C[C@H](NC(=O)C[C@H](O)[C@H](CC(C)C)NC(=O)[C@H](Cc1c[nH]cn1)NC(=O)CNC(=O)[C@@H](NC(=O)[C@H](C)NC(=O)[C@H](Cc1c[nH]c2ccccc12)NC(=O)[C@H](CCC(N)=O)NC(=O)[C@@H](Cc1ccccc1)NC(=O)c1ccc(NC(=O)CNC(=O)CN2CCN(CC(=O)O)CCN(CC(=O)O)CCN(CC(=O)O)CC2)cc1)C(C)C)C(N)=O [Compound 1, DOTA-Gly-aminobenzoyl-D-Phe-Gln-Trp-Ala-Val-Gly-His-Sta-Leu-NH2]",IC50,GRP receptor [1],30 ± 4.5 nM
same,antagonism of bombesin-induced GRP receptor internalization,GRP receptor [2],efficiently antagonized
same,"GRP receptor internalization, given alone",GRP receptor [2],no effect on GRP receptor internalization
same,"effect on calcium release, tested alone",GRP receptor [3]; 1 μmol/L and 10 μmol/L,no effect on calcium release
^177Lu-DOTA-Gly-4-aminobenzoyl-Gln-Trp-Ala-Val-Gly-His-Leu-Met-NH2 [Compound L70],agonist/antagonist behaviour,GRP receptor [4],behaved as an agonist
"[D-Phe^6, Leu-NHEt^13, des-Met^14]-bombesin(6-14) [GRPR-ANTAG, reference compound]",antagonism of bombesin-induced GRP receptor internalization,GRP receptor [2],efficiently antagonized
same,"GRP receptor internalization, given alone",GRP receptor [2],no effect on GRP receptor internalization
^68Ga-DOTA-4-amino-1-carboxymethyl-piperidine-D-Phe-Gln-Trp-Ala-Val-Gly-His-Sta-Leu-NH2 [^68Ga-COMPOUND 2],blocking of tumor contrast,PC-3 tumor [5]; [7],effectively blocked
same,tumor contrast,PC-3 tumor [5]; 1 h after injection of 10 MBq,High tumor-contrast
same,blocking of tumor contrast,LNCaP tumor; [7],effectively blocked
same,tumor contrast,LNCaP tumor; 1 h after injection of 10 MBq,High tumor-contrast
"^111In-DOTA-(15-amino-4,7,10,13-tetraoxapentadecanoic acid)-(4-amino-1-carboxy-methyl-piperidine)-D-Phe-Gln-Trp-Ala-Val-Gly-His-Sta-Leu-NH2 [^111In-Compound 5]","biodistribution, adrenal",PC-3 tumor [6]; 1 h,3.63 ± 0.53
same,"biodistribution, blood",PC-3 tumor [6]; 1 h,0.75 ± 0.21
same,"biodistribution, bone",PC-3 tumor [6]; 1 h,0.34 ± 0.04
same,"biodistribution, heart",PC-3 tumor [6]; 1 h,0.28 ± 0.06
same,"biodistribution, intestine",PC-3 tumor [6]; 1 h,2.39 ± 0.42
same,"biodistribution, kidney",PC-3 tumor [6]; 1 h,5.08 ± 0.72
same,"biodistribution, liver",PC-3 tumor [6]; 1 h,0.40 ± 0.09
same,"biodistribution, lung",PC-3 tumor [6]; 1 h,0.62 ± 0.15
same,"biodistribution, muscle",PC-3 tumor [6]; 1 h,0.19 ± 0.07
same,"biodistribution, pancreas",PC-3 tumor [6]; 1 h,26.83 ± 4.34
same,"biodistribution, pituitary",PC-3 tumor [6]; 1 h,9.02 ± 0.99
same,"biodistribution, spleen",PC-3 tumor [6]; 1 h,0.80 ± 0.28
same,"biodistribution, stomach",PC-3 tumor [6]; 1 h,3.92 ± 1.26
same,"biodistribution, tumor",PC-3 tumor [6]; 1 h,10.27 ± 0.36
same,tumor:blood,PC-3 tumor [6]; 1 h,13.73
same,tumor:bone,PC-3 tumor [6]; 1 h,29.93
same,tumor:kidney,PC-3 tumor [6]; 1 h,2.02
same,tumor:muscle,PC-3 tumor [6]; 1 h,53.65
same,tumor:pancreas,PC-3 tumor [6]; 1 h,0.38
same,"biodistribution, adrenal",PC-3 tumor [6]; 4 h,0.68 ± 0.31
same,"biodistribution, blood",PC-3 tumor [6]; 4 h,0.03 ± 0.01
same,"biodistribution, bone",PC-3 tumor [6]; 4 h,0.08 ± 0.02
same,"biodistribution, heart",PC-3 tumor [6]; 4 h,0.03 ± 0.01
same,"biodistribution, intestine",PC-3 tumor [6]; 4 h,0.17 ± 0.10
same,"biodistribution, kidney",PC-3 tumor [6]; 4 h,2.04 ± 0.15
same,"biodistribution, liver",PC-3 tumor [6]; 4 h,0.15 ± 0.05
same,"biodistribution, lung",PC-3 tumor [6]; 4 h,0.15 ± 0.19
same,"biodistribution, muscle",PC-3 tumor [6]; 4 h,0.02 ± 0.00
same,"biodistribution, pancreas",PC-3 tumor [6]; 4 h,1.36 ± 0.81
same,"biodistribution, pituitary",PC-3 tumor [6]; 4 h,0.38 ± 0.16
same,"biodistribution, spleen",PC-3 tumor [6]; 4 h,0.09 ± 0.03
same,"biodistribution, stomach",PC-3 tumor [6]; 4 h,0.87 ± 0.58
same,"biodistribution, tumor",PC-3 tumor [6]; 4 h,9.35 ± 0.73
same,tumor:blood,PC-3 tumor [6]; 4 h,319.66
same,tumor:bone,PC-3 tumor [6]; 4 h,124.55
same,tumor:kidney,PC-3 tumor [6]; 4 h,4.59
same,tumor:muscle,PC-3 tumor [6]; 4 h,475.17
same,tumor:pancreas,PC-3 tumor [6]; 4 h,6.90
same,"biodistribution, adrenal","PC-3 tumor [6]; 4 h blocking, 2000 fold",0.07 ± 0.02
same,"biodistribution, blood","PC-3 tumor [6]; 4 h blocking, 2000 fold",0.02 ± 0.00
same,"biodistribution, bone","PC-3 tumor [6]; 4 h blocking, 2000 fold",0.03 ± 0.03
same,"biodistribution, heart","PC-3 tumor [6]; 4 h blocking, 2000 fold",0.02 ± 0.00
same,"biodistribution, intestine","PC-3 tumor [6]; 4 h blocking, 2000 fold",0.03 ± 0.01
same,"biodistribution, kidney","PC-3 tumor [6]; 4 h blocking, 2000 fold",1.76 ± 0.36
same,"biodistribution, liver","PC-3 tumor [6]; 4 h blocking, 2000 fold",0.14 ± 0.01
same,"biodistribution, lung","PC-3 tumor [6]; 4 h blocking, 2000 fold",0.05 ± 0.01
same,"biodistribution, muscle","PC-3 tumor [6]; 4 h blocking, 2000 fold",0.01 ± 0.00
same,"biodistribution, pancreas","PC-3 tumor [6]; 4 h blocking, 2000 fold",0.06 ± 0.02
same,"biodistribution, pituitary","PC-3 tumor [6]; 4 h blocking, 2000 fold",0.23 ± 0.14
same,"biodistribution, spleen","PC-3 tumor [6]; 4 h blocking, 2000 fold",0.06 ± 0.01
same,"biodistribution, stomach","PC-3 tumor [6]; 4 h blocking, 2000 fold",0.06 ± 0.01
same,"biodistribution, tumor","PC-3 tumor [6]; 4 h blocking, 2000 fold",0.61 ± 0.07
same,"biodistribution, adrenal",PC-3 tumor [6]; 24 h,0.62 ± 0.16
same,"biodistribution, blood",PC-3 tumor [6]; 24 h,0.01 ± 0.00
same,"biodistribution, bone",PC-3 tumor [6]; 24 h,0.08 ± 0.02
same,"biodistribution, heart",PC-3 tumor [6]; 24 h,0.02 ± 0.00
same,"biodistribution, intestine",PC-3 tumor [6]; 24 h,0.05 ± 0.02
same,"biodistribution, kidney",PC-3 tumor [6]; 24 h,1.37 ± 0.22
same,"biodistribution, liver",PC-3 tumor [6]; 24 h,0.11 ± 0.02
same,"biodistribution, lung",PC-3 tumor [6]; 24 h,0.51 ± 0.73
same,"biodistribution, muscle",PC-3 tumor [6]; 24 h,0.02 ± 0.00
same,"biodistribution, pancreas",PC-3 tumor [6]; 24 h,0.33 ± 0.05
same,"biodistribution, pituitary",PC-3 tumor [6]; 24 h,0.46 ± 0.52
same,"biodistribution, spleen",PC-3 tumor [6]; 24 h,0.07 ± 0.01
same,"biodistribution, stomach",PC-3 tumor [6]; 24 h,0.05 ± 0.01
same,"biodistribution, tumor",PC-3 tumor [6]; 24 h,6.33 ± 0.76
same,tumor:blood,PC-3 tumor [6]; 24 h,1155.51
same,tumor:bone,PC-3 tumor [6]; 24 h,76.65
same,tumor:kidney,PC-3 tumor [6]; 24 h,4.62
same,tumor:muscle,PC-3 tumor [6]; 24 h,364.92
same,tumor:pancreas,PC-3 tumor [6]; 24 h,19.16
CC(C)C[C@H](NC(=O)C[C@H](O)[C@H](CC(C)C)NC(=O)[C@H](Cc1c[nH]cn1)NC(=O)CNC(=O)[C@@H](NC(=O)[C@H](C)NC(=O)[C@H](Cc1c[nH]c2ccccc12)NC(=O)[C@H](CCC(N)=O)NC(=O)[C@@H](Cc1ccccc1)NC(=O)c1ccc(NC(=O)CNC(=O)CN2CCN(CC(=O)O)CCN(CC(=O)O)CCN(CC(=O)O)CC2)cc1)C(C)C)C(N)=O [^115In-1],IC50,GRP receptor [1],16 ± 5.3 nM
same,Receptor internalization,GRP receptor [2]; HEK-GRPR cells,Antag/no agonist
same,Signaling Ca++ mobilization,GRP receptor [3],ANTAG/no agonist effect
